Assay results as given in article PMC10776578, “Epstein-Barr virus-driven B cell lymphoma mediated by a direct LMP1-TRAF6 complex” (Nature Communications, 2024).

B1: unnamed (parent)
chain 1: DHQIRELTAKMETQSMYVSELKRTIRTLEDKVAEIEAQQCNGIYIWKIGNFGMHLKCQEEEKPVVIHSPGFYTGKPGYKLCMRLHLQLPTAQRCANYISLFVHTMQGEYDSHLPWPFQGTIRLTILDQSEAPVRQNHEEIMDAKPELLAFQRPTIPRNPKGFGYVTFMHLEALRQRTFIKDDTLLVRCEVSTRFDMGSLRREGFQPRSTDAGV
chain 2: LIWMYYHGQRHSDEHHHDDSLPHPQQATDDSGHESDSNSNEGRHHLLVSGAGDGPPLCSQNLGAPGGGPDNGPQDPDNTDDNGPQDPDNTDDNGPHDPLPQDPDNTDDNGPQDPDNTDDNGPHDPLPHSPSDSAGNDGGPPQLTEEVENKGGDQGPPLMTDGGGGHSHDSGHGGGDPHLPTLLLGSSGSGGDDDDPHGPVQLSYYD
B2: unnamed (parent)
chain 1: B1 chain 1
chain 2: KKVAKKPTNKAPHPKQEPQEINFPDDLPGSNTAAPVQETLHGCQPVTQEDGKESRISVQERQ
B3: unnamed (parent)
chain 1: B1 chain 1
chain 2: GGGPYAQGEDARMLSLVSKTEIEEDSFRQMPTEDEYMDRPSQ
B4: unnamed (parent)
chain 1: MSLLNCENSCGSSQSESDCCVAMASSCSAVTKDDSVGGTASTGNLSSSFMEEIQGYDVEFDPPLESKYECPICLMALREAVQTPCGHRFCKACIIKSIRDAGHKCPVDNEILLENQLFPDNFAKREILSLMVKCPNEGCLHKMELRHLEDHQAHCEFALMDCPQCQRPFQKFHINIHILKDCPRRQVSCDNCAASMAFEDKEIHDQNCPLANVICEYCNTILIREQMPNHYDLDCPTAPIPCTFSTFGCHEKMQRNHLARHLQENTQSHMRMLAQAVHSLSVIPDSGYISEVRNFQETIHQLEGRLVRQDHQIRELTAKMETQSMYVSELKRTIRTLEDKVAEIEAQQCNGIYIWKIGNFGMHLKCQEEEKPVVIHSPGFYTGKPGYKLCMRLHLQLPTAQRCANYISLFVHTMQGEYDSHLPWPFQGTIRLTILDQSEAPVRQNHEEIMDAKPELLAFQRPTIPRNPKGFGYVTFMHLEALRQRTFIKDDTLLVRCEVSTRFDMGSLRREGFQPRSTDAGV
chain 2: MEHDLERGPPGPRRPPRGPPLSSSLGLALLLLLLALLFWLYIVMSDWTGGALLVLYSFALMLIIIILIIFIFRRDLLCPLGALCILLLMITLLLIALWNLHGQALFLGIVLFIFGCLLVLGIWIYLLEMLWRLGATIWQLLAFFLAFFLDLILLIIALYLQQNWWTLLVDLLWLLLFLAILIWMYYHGQRHSDEHHHDDSLPHPQQATDDSGHESDSNSNEGRHHLLVSGAGDGPPLCSQNLGAPGGGPDNGPQDPDNTDDNGPQDPDNTDDNGPHDPLPQDPDNTDDNGPQDPDNTDDNGPHDPLPHSPSDSAGNDGGPPQLTEEVENKGGDQGPPLMTDGGGGHSHDSGHGGGDPHLPTLLLGSSGSGGDDDDPHGPVQLSYYD

Variants of: B1
Assay: AlphaScreen
Details: with partner chain of the complex shown

Row | Variant | Kd
1 | chain 2 Y204F | 21.7 nM

Same assay, conditions: with partner chain of the complex shown; 100 nM His-TRAF6; parent: 100; read off a plot

Row | Variant | percent of parent
2 | chain 2 G198A | 75%
3 | chain 2 L202A | 100%
4 | chain 2 P24A Q26A T28A | 83%
5 | chain 2 P199A | 18%
6 | chain 2 Q201A | 7%
7 | chain 2 S203A | 94%
8 | chain 2 V200A | 15%
9 | chain 2 Y204A | 11%
10 | chain 2 Y205A | 47%

Same assay, conditions: with partner chain of the complex shown; 300 nM His-TRAF6; parent: 100; read off a plot

Row | Variant | percent of parent
11 | chain 2 G198A | 84%
12 | chain 2 L202A | 98%
13 | chain 2 P24A Q26A T28A | 98%
14 | chain 2 P199A | 19%
15 | chain 2 Q201A | 6%
16 | chain 2 S203A | 88%
17 | chain 2 V200A | 15%
18 | chain 2 Y204A | 10%
19 | chain 2 Y205A | 65%

Same assay, conditions: with partner chain of the complex shown; 1000 nM His-TRAF6; parent: 100; read off a plot

Row | Variant | percent of parent
20 | chain 2 G198A | 96%
21 | chain 2 L202A | 98%
22 | chain 2 P24A Q26A T28A | 92%
23 | chain 2 P199A | 21%
24 | chain 2 Q201A | 4%
25 | chain 2 S203A | 90%
26 | chain 2 V200A | 14%
27 | chain 2 Y204A | 9%
28 | chain 2 Y205A | 84%

Same assay, conditions: with partner chain of the complex shown; parent: 100; read off a plot

Row | Variant | percent of parent
29 | chain 1 F162A | 5%
30 | chain 1 K160A | 100%
31 | chain 1 R83A | 4%

Variants of: B2
Assay: AlphaScreen
Details: with partner chain of the complex shown; parent: 100; read off a plot

Row | Variant | percent of parent
32 | chain 1 F162A | 1%
33 | chain 1 K160A | 90%
34 | chain 1 R83A | 85%
35 | chain 1 Y164A | 1%

Variants of: B3
Assay: AlphaScreen
Details: with partner chain of the complex shown

Row | Variant | Kd
36 | chain 2 E33Q | 15.6 nM

Same assay, conditions: with partner chain of the complex shown; parent: 100; read off a plot

Row | Variant | percent of parent
37 | chain 1 F162A | 1%
38 | chain 1 R83A | 1%

Variants of: B4
Assay: co-immunoprecipitation, quantified immunoblot
Details: with partner chain of the complex shown; HEK293 cells; parent: 1.3e+07; read off a plot

Row | Variant | response (relative intensity)
39 | chain 1 F471A | 6e+06
40 | chain 1 K469A | 1.8e+07
41 | chain 1 R392A | 2.5e+06
42 | chain 1 Y473A | 5.5e+06
